Measured values reported in patent US20240067742A1 (4C BIOMED, published 2024).
Numbering of substitutions follows the chain as printed. Names may count otherwise.

B1: H4 (antibody, human IgG4 S228P, kappa, V domains shown)
VH: QVQLVQSGGGLVQPGGSLRLSCAASGFTFSSYAMSWVRQAPGKGLEWVSNIYSNPNRTYYADSVEGRFTISRDNSKNTLYLQMNSLRAEDTAVYYCAKAPGDYTAYFDYWGQGTLVTVSS
VL: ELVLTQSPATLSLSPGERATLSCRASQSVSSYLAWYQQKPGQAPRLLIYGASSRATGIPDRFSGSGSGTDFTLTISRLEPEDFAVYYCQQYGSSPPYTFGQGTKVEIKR
modifications: N-linked glycosylation site (NXS/T; NRT) in CDR-H2 found to be glycosylated in the final antibody (FIG. 1)
notes: also called H4-CDR2; H4 antibody
B2: H4-T57N (antibody, human IgG4 S228P, kappa, V domains shown)
VH: B1 VH with T58N
VL: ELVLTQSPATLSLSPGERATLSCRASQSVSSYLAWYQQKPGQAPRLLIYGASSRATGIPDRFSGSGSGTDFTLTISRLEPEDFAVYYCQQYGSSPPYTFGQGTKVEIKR
notes: H4 variant without the CDR-H2 glycosylation site; also called H4-T57N-CDR2
B3: H4-T57A (antibody, human IgG4 S228P, kappa, V domains shown)
VH: B1 VH with T58A
VL: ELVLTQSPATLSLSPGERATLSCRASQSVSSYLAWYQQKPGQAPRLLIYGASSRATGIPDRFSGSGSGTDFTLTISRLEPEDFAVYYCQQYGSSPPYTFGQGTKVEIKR
notes: H4 variant without the CDR-H2 glycosylation site; also called T57A antibody; T57A variant
B4: H4-T57G (antibody, human IgG4 S228P, kappa, V domains shown)
VH: B1 VH with T58G
VL: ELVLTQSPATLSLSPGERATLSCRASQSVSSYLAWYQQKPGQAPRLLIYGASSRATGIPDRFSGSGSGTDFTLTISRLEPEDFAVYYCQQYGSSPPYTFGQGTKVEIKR
notes: H4 variant without the CDR-H2 glycosylation site; also called H4-T57G-CDR2
B5: H4-N55E (antibody, human IgG4 S228P, kappa, V domains shown)
VH: B1 VH with N56E
VL: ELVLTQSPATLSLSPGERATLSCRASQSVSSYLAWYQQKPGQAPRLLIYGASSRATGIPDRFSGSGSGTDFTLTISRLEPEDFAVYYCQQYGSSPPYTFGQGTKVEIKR
notes: H4 variant without the CDR-H2 glycosylation site; also called H4-N55E-CDR2
B6: H4-N55D (antibody, human IgG4 S228P, kappa, V domains shown)
VH: B1 VH with N56D
VL: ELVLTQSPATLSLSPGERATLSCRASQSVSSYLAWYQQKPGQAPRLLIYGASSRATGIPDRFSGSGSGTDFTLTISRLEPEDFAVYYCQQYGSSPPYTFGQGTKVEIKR
notes: H4 variant without the CDR-H2 glycosylation site; also called H4-N55D-CDR2
B7: H4-T57E (antibody, human IgG4 S228P, kappa, V domains shown)
VH: B1 VH with T58E
VL: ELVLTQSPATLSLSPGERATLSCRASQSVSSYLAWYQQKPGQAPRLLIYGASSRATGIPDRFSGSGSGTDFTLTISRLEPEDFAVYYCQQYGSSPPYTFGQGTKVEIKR
notes: H4 variant without the CDR-H2 glycosylation site; also called H4-T57E-CDR2
B8: H4-N55S (antibody, human IgG4 S228P, kappa, V domains shown)
VH: B1 VH with N56S
VL: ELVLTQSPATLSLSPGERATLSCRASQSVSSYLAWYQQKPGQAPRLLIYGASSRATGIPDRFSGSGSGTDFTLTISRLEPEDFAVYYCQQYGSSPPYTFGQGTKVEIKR
notes: H4 variant without the CDR-H2 glycosylation site; also called H4-N55S-CDR2
B9: H4-N55G (antibody, human IgG4 S228P, kappa, V domains shown)
VH: B1 VH with N56G
VL: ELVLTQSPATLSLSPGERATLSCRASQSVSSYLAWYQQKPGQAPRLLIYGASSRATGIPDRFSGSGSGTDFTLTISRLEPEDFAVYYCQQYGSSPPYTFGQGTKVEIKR
notes: H4 variant without the CDR-H2 glycosylation site; also called H4-N55G-CDR2
B10: H4-N55Q (antibody, human IgG4 S228P, kappa, V domains shown)
VH: B1 VH with N56Q
VL: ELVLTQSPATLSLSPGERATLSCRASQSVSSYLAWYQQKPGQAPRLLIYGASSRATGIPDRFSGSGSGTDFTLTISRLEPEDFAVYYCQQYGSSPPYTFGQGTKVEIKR
notes: H4 variant without the CDR-H2 glycosylation site; also called H4-N55Q-CDR2
B11: human recombinant HVEM (hHVEM) (receptor, UniProt Q92956 39-202, looked up)
chain: LPSCKEDEYPVGSECCPKCSPGYRVKEACGELTGTVCEPCPPGTYIAHLNGLSKCLQCQMCDPAMGLRASRNCSRTENAVCGCSPGHFCIVQDGDHCAACRAYATSSPGQRVQKGGTESQDTLCQNCPPGTFSPNGTLEECQHQTKCSWLVTKAGAGTSSSHWV
notes: Recombinant protein coated at 2.5 ug/ml; also called recombinant hHVEM; hHVEM coated plates
B12: L18-H5 (antibody, human IgG4 S228P, kappa, V domains shown)
VH: B1 VH with Y52N, S53G, N54P, P55G, R57G
VL: ELVLTQSPATLSLSPGERATLSCRASQSVSSYLAWYQQKPGQAPRLLIYGASSRATGIPDRFSGSGSGTDFTLTISRLEPEDFAVYYCQQYGSYPPLTFGQGTKVEIKR
notes: combination of the L18 light chain and the H5 heavy chain; also called L18 (CDR3)-H5 (CDR2)
B13: Par-K64E (antibody, human IgG4 S228P, kappa, V domains shown)
VH: B1 VH with N50A, Y52S, S53G, N54S, P55G, N56G, R57S
VL: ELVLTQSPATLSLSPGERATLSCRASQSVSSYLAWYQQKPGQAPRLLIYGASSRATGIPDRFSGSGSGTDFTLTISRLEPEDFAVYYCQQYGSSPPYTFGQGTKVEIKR
notes: also called Parental-K64E-VH-CDR2; Par-K64E antibody
B14: H6 (antibody, human IgG4 S228P, kappa, V domains shown)
VH: B1 VH with N50G, Y52N, S53G, P55G, N56D, R57Y, E65K
VL: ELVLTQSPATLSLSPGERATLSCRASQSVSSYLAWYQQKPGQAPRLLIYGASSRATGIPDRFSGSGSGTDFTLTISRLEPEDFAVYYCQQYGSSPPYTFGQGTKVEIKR
notes: also called H6-CDR2
B15: L18 (antibody, human IgG4 S228P, kappa, V domains shown)
VH: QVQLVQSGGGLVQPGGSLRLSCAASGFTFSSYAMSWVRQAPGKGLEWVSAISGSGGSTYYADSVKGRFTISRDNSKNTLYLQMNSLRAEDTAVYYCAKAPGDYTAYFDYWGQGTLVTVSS
VL: B12 VL
notes: also called L18 (CDR3)
B16: L18-H4 (antibody, human IgG4 S228P, kappa, V domains shown)
VH: B1 VH
VL: B12 VL
notes: combination of the L18 light chain and the H4 heavy chain; also called L18 (CDR3)-H4 (CDR2)
B17: H5 (antibody, human IgG4 S228P, kappa, V domains shown)
VH: B1 VH with Y52N, S53G, N54P, P55G, R57G
VL: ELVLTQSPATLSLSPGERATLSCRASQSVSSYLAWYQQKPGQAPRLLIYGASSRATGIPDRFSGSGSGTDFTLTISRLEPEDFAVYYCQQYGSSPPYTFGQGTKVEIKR
notes: also called H5-CDR2
B18: H4-E64K (antibody, human IgG4 S228P, kappa, V domains shown)
VH: B1 VH with E65K
VL: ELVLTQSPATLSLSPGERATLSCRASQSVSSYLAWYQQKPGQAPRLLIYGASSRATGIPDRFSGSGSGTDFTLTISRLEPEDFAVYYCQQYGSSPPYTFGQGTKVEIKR
notes: also called H4-E64K-CDR2
B19: H8 (antibody, human IgG4 S228P, kappa, V domains shown)
VH: B1 VH with N50A, Y52G, S53G, N54S, P55G, N56S, R57G, E65K
VL: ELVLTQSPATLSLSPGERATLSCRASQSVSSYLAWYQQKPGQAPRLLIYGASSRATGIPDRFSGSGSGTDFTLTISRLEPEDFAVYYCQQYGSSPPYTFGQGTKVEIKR
notes: also called H8-CDR2

Target: T1, His-tagged human HVEM (human, UniProt Q92956 39-202)
T1 construct: extracellular domain; also called His-tagged HVEM (Acro Biosystems); HVEM extracellular domain peptide; not shown: His tag
T1 sequence (looked up): B11 chain
Experiment: Biacore 8K multi-cycle kinetics, purified antibody captured on Protein A, His-tagged human HVEM as analyte; reference: Parental
Description: (§1) Multi-Cycle Kinetics: Multicycle kinetic analysis was performed on purified antibodies. Kinetic experiments were performed at 25° C. on a Biacore 8K. HBS-P+0.1% BSA (Cytiva, Marlborough, USA) was used as running buffer. Purified antibodies were diluted to 1.0 μg/mL in running buffer and at the start of each cycle, loaded onto Fc2, Fc3 and Fc4 of a Protein A sensor chip (Cytiva, Marlborough, USA). Antibodies were captured at a flow rate of 10 μl/min to give an immobilisation level (RL) of ˜ 100 RU. The surface was then allowed to stabilise. Multi-cycle kinetic data was obtained using His-tagged human HVEM as the analyte injected at a flow rate of 50 μl/min. A eight point, two-fold dilution range from 0.78 nM to 100 nM of antigen were prepared in running buffer. For each concentration, the association phases were monitored for 180 seconds and the dissociation phase was measured for 300 seconds. Regeneration of the sensor chip surface was conducted between cycles using two injections of 10 mM Glycine-HCl, pH 1.5.
(§2) First a multicycle kinetics Biacore affinity assay was performed to confirm the improved binding of the H4, T57A, T57G and T57N antibodies (FIG. 3A). Each purified antibody was captured to a Protein A sensor chip before increasing concentrations of antigen (hHVEM) were injected. The fold improvement in affinity was calculated by dividing the average KD of the parent antibody by the average KD for each variant antibody. […] A single-cycle kinetic Biacore assay was also performed with the H4 N55G, H4 N55S, H4 N55D, H4 N55Q, H4 N55E, and H4 T57E antibodies (FIG. 3B).

Binder	Fold improvement (KD parent / KD variant) [fold]
B1	14
B2	33.6
B3	30.1
B4	8.97

Target: T1, His-tagged human HVEM
Experiment: Biacore T200 single-cycle kinetics, antibody supernatant captured on Protein A, His-tagged HVEM as analyte, 25 C
Description: (§3) Single Cycle Kinetics: To assess the binding of the affinity matured IgGs, single cycle kinetic analysis was performed on supernatants using a Biacore T200 (serial no. 1909913). Kinetic experiments were performed at 25° C. running Biacore T200 Control software V2.0.1 and Evaluation software V3.0 (Cytiva, Marlborough, USA). Antibodies were diluted in HBS-P+(Cytiva, Marlborough, USA) containing 1 mg/ml BSA to a final concentration of 1.0 μg/ml. Antibodies were loaded onto Fc2, Fc3 and Fc4 of the Protein A capture Sensor chip (Cytiva, Marlborough, USA). IgGs were captured at a flow rate of 10 μl/min to give an immobilisation level (RL) of ˜50 RU. The surface was then allowed to stabilize. Single cycle kinetics data was obtained using His-tagged HVEM (Acro Biosystems, Newark, USA) as the analyte at a flow rate of 40 μl/min. A two-fold dilution range from […] to 100 nM His-tagged antigen without regeneration between each concentration was used.
as §2

Binder	Kd [nM]
B5	20.6
B6	14.3
B7	23.4
B8	21
B9	13.1
B10	21.7

Target: T1, His-tagged human HVEM
Experiment: Biacore T200 single-cycle kinetics, antibody supernatant captured on Protein A, His-tagged HVEM as analyte; reference: Parental
Description: as §3, §2

Binder	Fold improvement (KD parent / KD variant) [fold]
B5	2.73
B6	3.93
B7	2.4
B8	2.67
B9	4.29
B10	2.59

Target: T2, hLIGHT-His (human, UniProt O43557 59-240)
T2 construct: Named only as hLIGHT-His; also called recombinant hLIGHT; not shown: exact limits of the vendor construct
Experiment: ELISA, plate coated with hHVEM, antibody 10 µg/ml present, hLIGHT-His 2.5 µg/ml, detection with anti-LIGHT

T2 sequence (O43557 59-240 limits assumed): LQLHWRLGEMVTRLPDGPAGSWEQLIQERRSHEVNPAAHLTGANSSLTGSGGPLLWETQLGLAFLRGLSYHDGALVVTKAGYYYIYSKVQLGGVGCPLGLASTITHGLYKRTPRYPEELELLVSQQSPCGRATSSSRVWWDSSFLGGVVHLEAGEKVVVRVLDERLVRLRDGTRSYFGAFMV

Binder	binding result
B11	binds

Target: T1, His-tagged human HVEM
Experiment: Biacore 8K multi-cycle kinetics, purified antibody captured on Protein A, His-tagged human HVEM as analyte, 25 C
Description: as §1, §2

Binder	Kd [nM]
B1	4.65
B2	1.94
B3	2.17
B4	7.27

Target: B11
Experiment: blocking ELISA: antibody titrated on plate-bound hHVEM in the presence of hBTLA, bound hBTLA detected (OD); the IC50 column has no unit, µg/ml is the unit of the x axis

Binder	IC50 [µg/mL]
B3	0.53

Target: T3, HVEM on HVEM-positive melanoma cells (UniProt Q92956 39-283, limits assumed)
T3 sequence (looked up): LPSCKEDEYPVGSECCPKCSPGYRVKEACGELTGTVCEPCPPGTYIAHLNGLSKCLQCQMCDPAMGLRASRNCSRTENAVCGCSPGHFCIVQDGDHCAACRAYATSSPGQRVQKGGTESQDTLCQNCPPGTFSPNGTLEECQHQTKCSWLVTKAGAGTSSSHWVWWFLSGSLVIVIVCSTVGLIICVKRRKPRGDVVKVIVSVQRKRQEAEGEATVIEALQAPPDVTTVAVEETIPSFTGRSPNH
Experiment: cell-based or functional assay

Binder	increase in specific killing events (Caspase 3/7) in melanoma cells cocultured with autologous TILs, as compared to the isotype control, after nine hours [%]
B2	9
B3	19
B4	19

Target: T1, His-tagged human HVEM
Experiment: Biacore KD to HVEM extracellular domain, IgG captured on Protein A, His-tagged HVEM as analyte; reference: Parental
Description: Affinity maturation: To improve binding affinity, the parental antibody was affinity matured using phage display. Heavy and/or light chain CDRs of variable domain regions were semi-randomized using oligonucleotide mutagenesis. Selections were performed using separate heavy and light chain phage libraries and decreasing concentrations of biotinylated His-tagged HVEM target to select the highest affinity binders from each library. Following four rounds of selections individual clones were screened as scFv supematants in a binding ELISA to identify lead candidates with signals greater than the parental scFv expressed in the same assay. Identified hits were converted into IgG and cloned into mammalian expression vectors. Plasmids encoding the affinity improved variants paired with the appropriate parental heavy or light chain, as well as the parental antibody, were transiently transfected small scale into HEK EBNA adherent cells (LGC Standards, Teddington, UK). At five days post-transfection, the supernatants were harvested, quantified by Octet (serial no. FB-30203) and analysed by Biacore single cycle kinetics.
as §3

Binder	Fold improvement vs parental (KD) [fold]
B1	9.57
B12	1.51
B5	2.73
B6	3.93
B13	3.14
B14	1.53
B15	1
B7	2.4
B2	23.5
B16	2.57
B8	2.67
B3	20.7
B9	4.29
B17	5.05
B10	2.59
B18	2.15
B4	6.24
B19	1.3
